# Laboratory results from US20250043302A1, “MUTATED HYDROXYPHENYLPYRUVATE DIOXYGENASE POLYPEPTIDE, AND CODING GENE AND USE THEREOF” (BEIJING DABEINONG BIOTECHNOLOGY CO., LTD., priority 2021, published 2025).
# Columns and labels:
# Format in all cases: in vivo
# [1] = system: Arabidopsis thaliana T1 plants; assay: Mesotrione tolerance of transgenic Arabidopsis thaliana T1 plants (spray, bleached leaf area grade, damage score); set-up: Scores: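 damage score 0-100 computed as Σ(N×S)/(T×M)×100 over grades 0-3 with higher meaning more damage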; details: for Grade 0 (classification and statistics of the grade of pesticide damage; number of plants) / Grade 1 (classification and statistics of the grade of pesticide damage; number of plants) / Grade 2 (classification and statistics of the grade of pesticide damage; number of plants) / Grade 3 (classification and statistics of the grade of pesticide damage; number of plants): 16 plants; for Classification and statistics of the grade of pesticide damage Grade 0 / Classification and statistics of the grade of pesticide damage Grade 1 / Classification and statistics of the grade of pesticide damage Grade 2 / Classification and statistics of the grade of pesticide damage Grade 3: number of plants in grade
# How it was run: (§1)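 Damage graded 0–3 from the proportion of bleached leaf area 7 days after spraying. Plants were glufosinate-selected T1 lines, 18 days after sowing, plus vector and wild-type controls. Rates: mesotrione 52.5–420, isoxaflutole 35–280, topramezone 25–200 g ai/ha, with water (0×).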
# [2] = system: Arabidopsis thaliana T1 plants; assay: Isoxaflutole tolerance of transgenic Arabidopsis thaliana T1 plants (spray, bleached leaf area grade, damage score); set-up: Scores (pesticide damage): scale not given here; details: for Classification and statistics of the grade of pesticide damage: Grade 0 (number of plants) / Classification and statistics of the grade of pesticide damage: Grade 1 (number of plants) / Classification and statistics of the grade of pesticide damage: Grade 2 (number of plants) / Classification and statistics of the grade of pesticide damage: Grade 3 (number of plants): 16 plants; for Classification and statistics of the grade of pesticide damage Grade 0 / Classification and statistics of the grade of pesticide damage Grade 1 / Classification and statistics of the grade of pesticide damage Grade 2 / Classification and statistics of the grade of pesticide damage Grade 3: number of plants in grade
# How it was run: as §1
# [3] = system: Arabidopsis thaliana T1 plants; assay: Topramezone tolerance of transgenic Arabidopsis thaliana T1 plants (spray, bleached leaf area grade, damage score); details: for Classification and statistics of the grade of pesticide damage Grade 0: number of plants at grade 0; for Classification and statistics of the grade of pesticide damage Grade 1: number of plants at grade 1; for Classification and statistics of the grade of pesticide damage Grade 2: number of plants at grade 2; for Classification and statistics of the grade of pesticide damage Grade 3: number of plants at grade 3; for Classification and statistics of the grade of pesticide damage: Grade 0 / Classification and statistics of the grade of pesticide damage: Grade 1 / Classification and statistics of the grade of pesticide damage: Grade 2 / Classification and statistics of the grade of pesticide damage: Grade 3: number of plants
# How it was run: as §1
# [4] = mesotrione 52.5 g ai/ha, Arabidopsis thaliana T1 plants
# [5] = mesotrione 105 g ai/ha, Arabidopsis thaliana T1 plants
# [6] = isoxaflutole 35 g ai/ha (0.5x field concentration), spray, Arabidopsis thaliana T1 plants
# [7] = isoxaflutole 70 g ai/ha (1x field concentration), spray, Arabidopsis thaliana T1 plants
# [8] = Table 13, topramezone 25 g ai/ha (1×)
# [9] = Table 13, topramezone 100 g ai/ha (4×)
# [10] = topramezone 25 g ai/ha (1×), 7 DAT, Table 4
# [11] = topramezone 100 g ai/ha (4×), 7 DAT, Table 4
molecule,measurement,setting,value
"AtHPPDm-F372A-02: nucleotide sequence encoding Arabidopsis thaliana HPPD with F372A; vector DBN11731 (nucleic acid, AtHPPDm-F372A-02 Nucleotide Sequence, vector DBN11731) DNA: ATGGGACATCAGAATGCTGCTGTATCAGAAAATCAAAATCATGATGATGGAGCCGCCTCCTCACCAGGGTTTAAGTTGGTTGGGTTCTCCAAGTTTGTACGGAAGAACCCAAAATCCGACAAGTTCAAGGTTAAACGCTTCCACCACATTGAATTCTGGTGCGGCGACGCCACCAATGTTGCTCGGCGTTTTTCATGGGGTTTAGGCATGAGATTCTCAGCAAAGAGTGACCTGAGCACCGGCAACATGGTTCATGCTAGCTATCTCTTAACATCTGGAGATTTGAGGTTTCTTTTCACGGCGCCGTACTCACCATCACTCTCCGCCGGCGAGATCAAACCCACCACGACTGCAAGCATACCTTCATTTGATCATGGTAGTTGCAGATCCTTCTTCTCGTCGCACGGCCTAGGGGTGCGCGCGGTCGCCATCGAAGTTGAAGATGCAGAATCAGCGTTTAGTATCAGCGTGGCAAATGGAGCTATTCCTTCCTCCCCTCCAATTGTCCTCAATGAGGCTGTAACTATTGCCGAGGTGAAGTTGTATGGAGATGTTGTGCTGAGATATGTTTCTTACAAGGCAGAGGACACTGAGAAATCTGAATTTTTGCCTGGTTTTGAAAGGGTCGAGGATGCTTCAAGTTTTCCTCTTGATTACGGCATACGACGGTTGGATCACGCGGTTGGAAATGTACCAGAACTTGGGCCGGCGCTCACTTATGTGGCTGGTTTCACTGGATTCCATCAATTTGCTGAGTTCACAGCTGATGATGTTGGGACTGCTGAAAGTGGGTTGAACTCTGCAGTCCTCGCCTCTAATGATGAAATGGTGCTCCTCCCGATCAACGAGCCTGTGCATGGCACCAAAAGGAAATCACAAATACAGACATATCTTGAGCACAATGAAGGTGCAGGGCTTCAACATCTTGCACTGATGTCTGAAGACATTTTCCGTACGCTGAGAGAGATGAGGAAGAGAAGTAGTATTGGTGGATTTGACTTCATGCCTTCTCCCCCACCAACTTACTACCAGAACTTGAAGAAGAGGGTTGGTGATGTGCTATCTGATGACCAGATCAAGGAGTGTGAAGAATTGGGCATTCTTGTTGATCGGGACGACCAAGGAACATTACTGCAGATAGCCACAAAACCACTTGGTGACCGCCCCACTATTTTTATTGAGATCATACAAAGAGTCGGCTGCATGATGAAGGATGAGGAAGGAAAAGCATATCAATCTGGTGGTTGTGGCGGCTTTGGGAAAGGAAACTTCTCTGAGCTGTTCAAATCCATCGAGGAGTATGAGAAGACCTTGGAGGCCAAGCAGCTCGTGGGTTGA",Resistance evaluation,[1]; mesotrione 52.5 g ai/ha,Poorly resistant
same,Scores,[1]; mesotrione 52.5 g ai/ha,63
same,Resistance evaluation,[1]; [4],Poorly resistant
same,Scores,[1]; [4],63
same,Grade 0 (classification and statistics of the grade of pesticide damage; number of plants),[1]; [4],0
same,Grade 1 (classification and statistics of the grade of pesticide damage; number of plants),[1]; [4],5
same,Grade 2 (classification and statistics of the grade of pesticide damage; number of plants),[1]; [4],8
same,Grade 3 (classification and statistics of the grade of pesticide damage; number of plants),[1]; [4],3
same,Classification and statistics of the grade of pesticide damage Grade 0,[1]; mesotrione 52.5 g ai/ha,0
same,Classification and statistics of the grade of pesticide damage Grade 1,[1]; mesotrione 52.5 g ai/ha,5
same,Classification and statistics of the grade of pesticide damage Grade 2,[1]; mesotrione 52.5 g ai/ha,8
same,Classification and statistics of the grade of pesticide damage Grade 3,[1]; mesotrione 52.5 g ai/ha,3
same,Resistance evaluation,[1]; mesotrione 105 g ai/ha,Non-resistant
same,Scores,[1]; mesotrione 105 g ai/ha,100
same,Resistance evaluation,[1]; [5],Non-resistant
same,Scores,[1]; [5],100
same,Grade 0 (classification and statistics of the grade of pesticide damage; number of plants),[1]; [5],0
same,Grade 1 (classification and statistics of the grade of pesticide damage; number of plants),[1]; [5],0
same,Grade 2 (classification and statistics of the grade of pesticide damage; number of plants),[1]; [5],0
same,Grade 3 (classification and statistics of the grade of pesticide damage; number of plants),[1]; [5],16
same,Classification and statistics of the grade of pesticide damage Grade 0,[1]; mesotrione 105 g ai/ha,0
same,Classification and statistics of the grade of pesticide damage Grade 1,[1]; mesotrione 105 g ai/ha,0
same,Classification and statistics of the grade of pesticide damage Grade 2,[1]; mesotrione 105 g ai/ha,0
same,Classification and statistics of the grade of pesticide damage Grade 3,[1]; mesotrione 105 g ai/ha,16
same,Resistance evaluation,[2]; isoxaflutole 35 g ai/ha,Poorly
same,Scores,[2]; isoxaflutole 35 g ai/ha,52
same,Resistance evaluation,[2]; [6],Poorly
same,Scores (pesticide damage),[2]; [6],52
same,Classification and statistics of the grade of pesticide damage: Grade 0 (number of plants),[2]; [6],0
same,Classification and statistics of the grade of pesticide damage: Grade 1 (number of plants),[2]; [6],9
same,Classification and statistics of the grade of pesticide damage: Grade 2 (number of plants),[2]; [6],5
same,Classification and statistics of the grade of pesticide damage: Grade 3 (number of plants),[2]; [6],2
same,Classification and statistics of the grade of pesticide damage Grade 0,[2]; isoxaflutole 35 g ai/ha,0
same,Classification and statistics of the grade of pesticide damage Grade 1,[2]; isoxaflutole 35 g ai/ha,9
same,Classification and statistics of the grade of pesticide damage Grade 2,[2]; isoxaflutole 35 g ai/ha,5
same,Classification and statistics of the grade of pesticide damage Grade 3,[2]; isoxaflutole 35 g ai/ha,2
same,Resistance evaluation,[2]; isoxaflutole 70 g ai/ha,Non-resistant
same,Scores,[2]; isoxaflutole 70 g ai/ha,96
same,Resistance evaluation,[2]; [7],Non-resistant
same,Scores (pesticide damage),[2]; [7],96
same,Classification and statistics of the grade of pesticide damage: Grade 0 (number of plants),[2]; [7],0
same,Classification and statistics of the grade of pesticide damage: Grade 1 (number of plants),[2]; [7],0
same,Classification and statistics of the grade of pesticide damage: Grade 2 (number of plants),[2]; [7],2
same,Classification and statistics of the grade of pesticide damage: Grade 3 (number of plants),[2]; [7],14
same,Classification and statistics of the grade of pesticide damage Grade 0,[2]; isoxaflutole 70 g ai/ha,0
same,Classification and statistics of the grade of pesticide damage Grade 1,[2]; isoxaflutole 70 g ai/ha,0
same,Classification and statistics of the grade of pesticide damage Grade 2,[2]; isoxaflutole 70 g ai/ha,2
same,Classification and statistics of the grade of pesticide damage Grade 3,[2]; isoxaflutole 70 g ai/ha,14
same,Resistance evaluation,[3]; [8],Poorly
same,Classification and statistics of the grade of pesticide damage Grade 0,[3]; [8],4
same,Classification and statistics of the grade of pesticide damage Grade 1,[3]; [8],4
same,Classification and statistics of the grade of pesticide damage Grade 2,[3]; [8],8
same,Classification and statistics of the grade of pesticide damage Grade 3,[3]; [8],0
same,Scores,"[3]; Table 13, topramezone 25 g ai/ha (1×), pesticide damage score",42
same,Resistance evaluation,[3]; [9],Non-resistant
same,Classification and statistics of the grade of pesticide damage Grade 0,[3]; [9],0
same,Classification and statistics of the grade of pesticide damage Grade 1,[3]; [9],0
same,Classification and statistics of the grade of pesticide damage Grade 2,[3]; [9],4
same,Classification and statistics of the grade of pesticide damage Grade 3,[3]; [9],12
same,Scores,"[3]; Table 13, topramezone 100 g ai/ha (4×), pesticide damage score",92
same,Classification and statistics of the grade of pesticide damage: Grade 0,[3]; [10],4
same,Classification and statistics of the grade of pesticide damage: Grade 1,[3]; [10],4
same,Classification and statistics of the grade of pesticide damage: Grade 2,[3]; [10],8
same,Classification and statistics of the grade of pesticide damage: Grade 3,[3]; [10],0
same,Classification and statistics of the grade of pesticide damage: Grade 0,[3]; [11],0
same,Classification and statistics of the grade of pesticide damage: Grade 1,[3]; [11],0
same,Classification and statistics of the grade of pesticide damage: Grade 2,[3]; [11],4
same,Classification and statistics of the grade of pesticide damage: Grade 3,[3]; [11],12
same,Scores,"[3]; pesticide damage score 0-100, topramezone 25 g ai/ha (1×), 7 DAT, Table 4",42
same,Scores,"[3]; pesticide damage score 0-100, topramezone 100 g ai/ha (4×), 7 DAT, Table 4",92
same,Resistance evaluation,[3]; [10],poorly
same,Resistance evaluation,[3]; [11],non-resistant (non-resistant plants (scores 68-100))
